Reference: patent publication US20230025129A1 (KYMAB, published 2023)
Residue numbers refer to the chain shown, from its start. Names and notes keep the numbering of the source.

B1: NORI-006 (antibody, human IgG4 S228P, kappa, V domains shown)
VH: EVQLVESGGGLIKPGRSLRLSCTGSGFTFGDFGLSWFRQAPGKGLEWISFIRSKPYGGTTDYAASVKGRFTISRDDSKNVAYLQMNSLKTEDTAVYYCARNEILTGYYIFDYWGQGTLVTVSS
VL: DIQMTQSPSSLSASLGDRVTITCQASQDINNYLNWYQVQPGKAPKLLIFDASILETGVPSRFSGSGSGTDFSFTISSLQPEDIATYYCQQYDNLPLTFGGGTKVDFKR
notes: human IgG4PE, kappa
B2: NORI-003 (antibody, human IgG4 S228P, kappa, V domains shown)
VH: EVQLVESGGGLVKPGRSLRLSCTGSGFTFGDFGMSWFRQAPGKGLEWVGFIRSKPYGGTTDYAPSVRGRFSISRDDSKGIVYLQMNSLRTEDTAVYYCSRNEILTGYYIFDYWGQGTLVTVSS
VL: B1 VL with Q27H, N30T, N34I, V38Q, Q39K, K45R, S72T, I83F, D92Y, F106I
notes: human IgG4PE, kappa; NORI-002 with the free cysteine of the VH domain mutated (printed as 'C49C')
B3: NORI-008 (antibody, human IgG4 S228P, kappa, V domains shown)
VH: QVQLQESGPGLVKPSETLSLTCSVSGGSVSSGRYYWTWIRQPPGKGLEWIGYISNSGNTNYNPSLKSRVTISLDTSKKQFSLSLSAVTAADTAVYYCARGFIYDYWFDPWGQGSLVTVSS
VL: DSQMTQSPSSLSASVGDRVTITCQASQDIDNYLNWYQQRPGKAPKLLIYDASKLETGVPSRFSGSGSGTDFTFTISSLQPEDFATYYCQQYGNLPITFGQGTRLDIKR
notes: human IgG4PE, kappa, in the in vitro assays; a mouse IgG1 format was used in one in vivo study only; also called NORI-008 hulgG4PE; NORI-008 IgG
B4: NORI-011 (antibody, human IgG4 S228P, lambda)
heavy: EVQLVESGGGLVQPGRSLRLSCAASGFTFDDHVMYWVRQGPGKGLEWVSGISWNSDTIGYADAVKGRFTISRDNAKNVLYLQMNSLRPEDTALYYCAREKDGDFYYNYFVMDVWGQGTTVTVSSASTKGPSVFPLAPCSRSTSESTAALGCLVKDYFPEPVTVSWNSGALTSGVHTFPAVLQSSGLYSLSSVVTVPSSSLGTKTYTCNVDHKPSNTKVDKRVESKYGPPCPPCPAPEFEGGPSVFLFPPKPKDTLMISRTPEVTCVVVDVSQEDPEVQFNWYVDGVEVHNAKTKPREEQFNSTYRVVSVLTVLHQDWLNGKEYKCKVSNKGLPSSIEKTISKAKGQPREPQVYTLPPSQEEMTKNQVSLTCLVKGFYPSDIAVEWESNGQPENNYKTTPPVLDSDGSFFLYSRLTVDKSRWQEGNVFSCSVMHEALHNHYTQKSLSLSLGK
light: QSALTQPPSASGSPGQSVTISCTGTSSDVGFYNFVSWYQQHPDKAPKVMIYEVSKRPSGVPDRFSGSKSGNTASLTVSGLQAEDEADYYCSSYAGSNKVVFGGGTKLTVLGQPKAAPSVTLFPPSSEELQANKATLVCLISDFYPGAVTVAWKADSSPVKAGVETTTPSKQSNNKYAASSYLSLTPEQWKSHRSYSCQVTHEGSTVEKTVAPTECS
notes: human IgG4PE, lambda; NORI-010 with a P124S mutation in the VH domain

target: T1, human matriptase-2 ECD protein his tag (human, UniProt Q8IU80 78-811); assay: cell-based or functional assay
T1 sequence: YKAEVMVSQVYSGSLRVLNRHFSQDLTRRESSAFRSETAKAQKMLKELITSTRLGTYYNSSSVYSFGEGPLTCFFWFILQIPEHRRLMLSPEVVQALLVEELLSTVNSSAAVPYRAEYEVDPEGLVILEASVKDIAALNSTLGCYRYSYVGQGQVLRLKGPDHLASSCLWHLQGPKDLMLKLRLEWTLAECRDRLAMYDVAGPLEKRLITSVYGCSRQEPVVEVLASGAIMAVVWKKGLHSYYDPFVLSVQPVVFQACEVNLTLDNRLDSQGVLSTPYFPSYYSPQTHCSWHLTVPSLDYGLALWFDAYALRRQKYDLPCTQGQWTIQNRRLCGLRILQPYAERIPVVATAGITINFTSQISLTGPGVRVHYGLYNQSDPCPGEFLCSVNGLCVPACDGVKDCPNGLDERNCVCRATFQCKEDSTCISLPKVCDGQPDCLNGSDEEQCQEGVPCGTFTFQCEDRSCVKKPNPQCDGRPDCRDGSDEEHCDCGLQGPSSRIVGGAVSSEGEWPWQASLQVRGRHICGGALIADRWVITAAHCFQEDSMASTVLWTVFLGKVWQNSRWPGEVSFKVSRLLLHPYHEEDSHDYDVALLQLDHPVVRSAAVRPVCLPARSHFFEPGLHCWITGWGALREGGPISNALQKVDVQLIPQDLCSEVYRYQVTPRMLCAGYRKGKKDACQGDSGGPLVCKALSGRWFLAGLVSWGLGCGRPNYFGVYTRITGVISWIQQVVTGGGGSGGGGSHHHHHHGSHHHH

Question: B1 was tested. Which “Inhibition enzymatic activity human MTP2 protein (IC50)” value did it give?
Answer: The value was 1.26 nM.

Question: For B2, which “Inhibition enzymatic activity human MTP2 protein (IC50)” value is on record?
Answer: Its value is 1.6 nM.

Question: How did the “Inhibition enzymatic activity human MTP2 protein (IC50)” value turn out when B3 was run?
Answer: Its value is 0.446 nM.

Question: Which “Inhibition enzymatic activity human MTP2 protein (IC50)” value does the source give for B4 here?
Answer: The value was 11.4 nM.

target: T2, mouse matriptase-2 ECD protein his tag (mouse, UniProt Q9DBI0 80-811); assay: cell-based or functional assay
T2 sequence: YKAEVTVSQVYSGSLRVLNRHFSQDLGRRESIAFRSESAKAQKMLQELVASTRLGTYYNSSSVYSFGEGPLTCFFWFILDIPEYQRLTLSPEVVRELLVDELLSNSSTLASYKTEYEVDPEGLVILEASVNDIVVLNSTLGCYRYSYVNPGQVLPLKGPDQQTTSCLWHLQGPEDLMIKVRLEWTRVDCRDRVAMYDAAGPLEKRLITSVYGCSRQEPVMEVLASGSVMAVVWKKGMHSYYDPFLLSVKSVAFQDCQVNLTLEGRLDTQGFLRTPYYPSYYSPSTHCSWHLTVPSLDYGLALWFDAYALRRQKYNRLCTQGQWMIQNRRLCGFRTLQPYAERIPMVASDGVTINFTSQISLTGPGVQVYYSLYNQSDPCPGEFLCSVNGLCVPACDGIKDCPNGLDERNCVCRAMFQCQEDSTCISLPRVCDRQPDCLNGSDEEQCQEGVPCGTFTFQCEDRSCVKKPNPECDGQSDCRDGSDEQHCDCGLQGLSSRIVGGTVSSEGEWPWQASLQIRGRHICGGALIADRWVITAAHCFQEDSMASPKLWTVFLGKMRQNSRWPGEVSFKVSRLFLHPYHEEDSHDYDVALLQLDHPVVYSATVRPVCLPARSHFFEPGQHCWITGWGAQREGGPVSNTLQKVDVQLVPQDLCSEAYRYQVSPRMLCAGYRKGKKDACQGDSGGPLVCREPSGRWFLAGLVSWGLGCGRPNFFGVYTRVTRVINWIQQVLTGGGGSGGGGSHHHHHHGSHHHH

Question: Which “Inhibition enzymatic activity mouse MTP2 protein (IC50)” value does the source give for B1 here?
Answer: Its value is 27.6 nM.

Question: Which “Inhibition enzymatic activity mouse MTP2 protein (IC50)” value does the source give for B2 here?
Answer: The value was 19 nM.

Question: With B3 as the binder, how does the “Inhibition enzymatic activity mouse MTP2 protein (IC50)” value read?
Answer: Its value is 0.757 nM.

Question: With B4 as the binder, how does the “Inhibition enzymatic activity mouse MTP2 protein (IC50)” value read?
Answer: Its value is 9.88 nM.

target: T1, human matriptase-2 ECD protein his tag; assay: HTRF competition with 647-labelled aprotinin for human MTP-2 protein
Excerpt: Aprotinin is a pan serine protease inhibitor and is known to occupy the active site of serine proteases. A HTRF competition assay against labelled aprotinin confirmed that NORI-003, NORI-006, NORI-008 and NORI-011 were binding at or near this same site and competed with aprotinin for binding to human MTP-2 protein. […] This was confirmed by their lack of competition of aprotinin against moMTP-2 while IC50 values in the enzymatic assay were similar to those of NORI-011. […] FIG. 8. Table L.
Antibodies were titrated into HTRF buffer (DPBS (Gibco—14190144) with 0.1% BSA (Sigma—A7906) and potassium fluoride 0.53M (Sigma—60240-250 G)) at 4× conc with a starting concentration of 200 nM. 5 μL/w of antibodies were added to 384-well white plates (Greiner—784904). Purified proteins of huMTP-2 and moMTP-2 were diluted into HTRF buffer (huMTP-2=40 nM and moMTP-2=240 nM) 4× final conc and plate 5 μL/w. Anti-MTP-2 mAb (NORI-037) in molgG1 backbone was then diluted to 1.2 nM 4× final conc with DELFIA Eu-N1 Rabbit Anti-Mouse-IgG antibody (AD0207) at a 1:1000 dilution 4× final conc in HTRF buffer. Finally, dilute 647-labelled Aprotinin (Sigma—A3428) in HTRF buffer to 20 nM 4× final conc and plate 5 μL/w. Incubate plates for 3 hours or more at RT in the dark. Read plate using HTRF 100 flashes protocol on the EnVision plate reader at 1H 2H and 3H. (Ex: 340 nm Em1: 620 nm Em2: 665 nm).

Question: Which IC50 does the source give for B1 here?
Answer: Its IC50 is 13.9 nM.

Question: With B2 as the binder, how does the IC50 read?
Answer: The IC50 was 7.28 nM.

Question: Which IC50 does the source give for B3 here?
Answer: Its IC50 is 0.256 nM.

Question: Which IC50 does the source give for B4 here?
Answer: Its IC50 is 17 nM.
